Experimental findings from US20170101455A1 are described below.

The target of assay [1] is Insulin receptor. The assay is described as follows: SPR (BIACORE 3000), insulin receptor immobilised on CM5 chip; Test 5. On the technique in general: In SPR one partner is held on a chip, and binding of the other changes the refractive index at the surface.
Assay [2] concerns the target Insulin receptor. Briefly: SPR (BIACORE 3000), insulin receptor immobilised on CM5 chip; Test 2.
The target of assay [3] is Insulin receptor. Briefly: SPR (BIACORE 3000), insulin receptor immobilised on CM5 chip; Test 4.
Assay [4] has as its target Insulin receptor. Briefly: SPR (BIACORE 3000), insulin receptor immobilised on CM5 chip; Test 3.

In general, Kd refers to the constant that tells how readily two partners part at equilibrium. A low value points to tighter binding. By koff is commonly meant the first-order rate constant of dissociation. Low values mean slow dissociation, high ones fast dissociation. For orientation: kon means a measure of how fast the partners come together. Low values mean slower complex formation, high ones faster complex formation.

As for “Native insulin-immunoglobulin Fc conjugate”, in the assay with Insulin receptor [1], the Kd was 862 nM, the ka relative to native human insulin was found to be 4.3%, the kd relative to native human insulin turned out to be 76.5% and the dissociation rate constant (koff) turned out to be 0.0074 s⁻¹. Further, in the assay with Insulin receptor [1], the kon is 9000 M⁻¹ s⁻¹ and the receptor binding affinity (KD) relative to native human insulin was 5.9%. For the same substance, in the assay with Insulin receptor [2], the Kd was determined as 781 nM, the ka relative to native human insulin was found to be 3.9%, the kd relative to native human insulin is 77.2% and the dissociation rate constant (koff) was 0.0078 s⁻¹. In the assay with Insulin receptor [2], this substance gave a kon of 9000 M⁻¹ s⁻¹ and a receptor binding affinity (KD) relative to native human insulin of 5.9%. In addition, in the assay with Insulin receptor [3], the Kd was found to be 1140 nM, the ka relative to native human insulin was determined as 2.1%, the kd relative to native human insulin is 56.1% and the koff came out at 0.0069 s⁻¹. In the assay with Insulin receptor [3], the receptor binding affinity (KD) relative to native human insulin was determined as 3.7%. In the assay with Insulin receptor [4], this substance displayed a Kd of 1240 nM, a ka relative to native human insulin of 2.7%, a kd relative to native human insulin of 54.5% and a koff of 0.00585 s⁻¹. For the same substance, in the assay with Insulin receptor [4], the kon is 5000 M⁻¹ s⁻¹ and the receptor binding affinity (KD) relative to native human insulin was determined as 5.1%.
